In patent publication US20030138894:

Tested on: ACE-2 inhibitor peptide (the most active ACE-2 inhibitor peptide, Example 9)

Angiotensin converting enzyme (ACE)
hydrolysis of the substrate, hip his-leu (250 mM) by ACE (1.5 nM): the inhibitor did not affect the hydrolysis of the substrate, hip his-leu (250 mM) by ACE (1.5 nM), even at 25 mM

recombinant human-ACE-2
conversion of angiotensin I to A1-9 by ACE-2: This peptide also inhibited conversion of angiotensin I to A1-9 by ACE-2.
